Test [1] addresses T1, human fibronectin (human, UniProt P02751). Nature of the test: solid-phase competition, 125I-fibronectin on coated fibronectin.
The target of test [2] is T1, human fibronectin. Kind of test: solid-phase competition, 125I-14 kDa fragment on coated fibronectin.

The results in this text go back to patent publication US5837813, “Fibronectin Type III polypeptides” (La Jolla Cancer Research Foundation, dated 1998).

A word on the IC50: it is the concentration at which inhibition is half-maximal. The low end stands for higher potency, the high end for lower potency. In the case of NAPQPSHISKYILRWRPKNSVGRWKEATIPG [polypeptide P1], the concentration for half-maximal inhibition (IC50) with human fibronectin [1] is around 1000 nM; with human fibronectin [2] it was 1000 nM.
